Source: article PMC12379375
pKd: −log10 of the molar value.

Target: recombinant CgDM9CP-6 (DM9 domain containing protein 6 of Crassostrea gigas), His tag (Crassostrea gigas)
Assay: BLI

recombinant Cg14-3-3ε (14-3-3 epsilon of Crassostrea gigas), GST tag (natural protein)
pKd: 5.42
